167 variants from the RNAGym collection of RNA variant scans (doi:10.7554/elife.80360) can be followed below.

B1: Twister Ribozyme (parent)
chain: AACACUGCCAAUGCCGGUCCCAAGCCCGGAUAAAAGUGGAGGGGGCGG

This data set covers variants of B1. In words: self-cleavage, relative activity (ratio to wild type); higher = more cleavage; co-transcriptional.
With G39C G41U, the self-cleavage was found to be 0.122.
The result for U6C C19U reads 0.131.
Turning to A22U G48C, the self-cleavage was determined as 0.954.
In the case of G29C A35C, the self-cleavage is 0.701.
For A11G G44U, the self-cleavage turned out to be 0.876.
The result for U12A G43U reads 0.477.
In the case of A2C C20A, the self-cleavage worked out at 0.0642.
C14U G39C: the self-cleavage came to 0.198.
The result for U37G G45C reads 0.268.
On to G13A C46A, for which the self-cleavage was determined as 0.715.
As for U6C, the figure is 0.596; as for G17A G28U, 0.258.
The result for A1G U18C reads 0.335.
For C19A A22G, the self-cleavage came to 0.0827.
On to A11G C15A, for which the self-cleavage amounted to 0.567.
With G39U G44C, the self-cleavage worked out at 0.155.
On to U18G C27G, for which the self-cleavage stood at 0.0399.
In the case of G24C G48A, the self-cleavage was 0.0988.
With U37A C46A, the self-cleavage was 0.844.
The result for G41U C46G reads 0.509; that for C20U G45A, 0.838; that for C15G C21A, 0.077.
The result for G28U A34G reads 0.574; that for G29U G44A, 0.79; that for U12G G38U, 0.76.
As for A2C C27U, the figure is 0.0597; as for C21A G36A, 0.0703.
As for A40U G43U, the self-cleavage amounted to 0.0936.
Consider U12A A35C, for which the self-cleavage is 1.09.
Turning to G24C G43U, the self-cleavage is 0.0968.
On to G16A A23G, for which the self-cleavage came out at 0.161.
Take G24C C46U: the self-cleavage amounted to 0.126.
Turning to C3A G39C, the self-cleavage is 0.0623.
In the case of A10G C26A, the self-cleavage was found to be 0.518.
Consider A11U U31C, for which the self-cleavage came out at 1.04.
For the variant A33U A34C, the self-cleavage stood at 0.637.
As for C8G G13U, the self-cleavage is 0.194.
As to U12A G28A, the self-cleavage came out at 0.912.
For G43U G47A, the self-cleavage turned out to be 0.201.
With A22C G38U, the self-cleavage stood at 0.782.
As to A11C G24U, the self-cleavage was determined as 0.0789.
Turning to G16A G17U, the self-cleavage stood at 0.232.
As to A35U G47A, the self-cleavage was 0.899.
The result for G17A G38U reads 0.468.
For the variant A4U A11U, the self-cleavage is 0.193.
On to C14A C27U, for which the self-cleavage came to 0.75.
As to C15G A30G, the self-cleavage came to 0.123.
Take C9A A32G: the self-cleavage came out at 0.729.
As for G13C C46U, the self-cleavage amounted to 0.485.
As for C19U G29C, the self-cleavage is 0.438.
G39C: the self-cleavage stood at 0.158.
The result for G13C A30U reads 0.612; that for A4C G7A, 0.0506; that for A33G G38A, 0.709.
As for G16C G45A, the self-cleavage is 0.161.
Consider A1C G17A, for which the self-cleavage was 0.172.
Turning to A1C G17U, the self-cleavage was found to be 0.166.
As for G28U U31A, the figure is 0.881; as for G24C C25U, 0.114; as for U31A G36A, 0.614.
Turning to C21A A35U, the self-cleavage turned out to be 0.104.
Regarding U31C G38U, the self-cleavage stood at 0.904.
The result for C8G G39A reads 0.0973.
Consider A10C C27G, for which the self-cleavage was determined as 0.0988.
On to C5G A33C, for which the self-cleavage was 0.565.
Regarding A40G G44A, the self-cleavage was determined as 0.157.
U12C A30C: the self-cleavage came to 0.761.
On to C21U C25A, for which the self-cleavage is 0.061.
For the variant U12A C21A, the self-cleavage came out at 0.152.
For the variant G7A A35G, the self-cleavage stood at 0.123.
Regarding U6C G29U, the self-cleavage was 0.371.
For the variant C19U C20A, the self-cleavage was found to be 0.107.
Consider C3G C8G, for which the self-cleavage came out at 0.153.
As to G16C A33G, the self-cleavage amounted to 0.403.
C3U G7A: the self-cleavage was found to be 0.0905.
For A2C U6C, the self-cleavage was 0.0549.
On to C3U G44U, for which the self-cleavage came out at 0.436.
As for C3G G41A, the self-cleavage was found to be 0.209.
A11G G24A: the self-cleavage came out at 0.0843.
On to G29U G41A, for which the self-cleavage worked out at 0.422.
As to A35C G36U, the self-cleavage worked out at 0.477.
With C15U A30C, the self-cleavage was 0.802.
As to C14U A32C, the self-cleavage was 1.03.
The result for C9A A35G reads 0.548; that for C9A A35C, 0.66; that for C9U A11C, 0.736.
On to G16A G45A, for which the self-cleavage is 0.891.
As for C8U A23U, the self-cleavage stood at 0.078.
Take C8G C27G: the self-cleavage came out at 0.0686.
Take A4U C27U: the self-cleavage came to 0.0803.
The result for A1U A11U reads 0.0684; that for U37G G44C, 0.669.
As for C15U U31G, the self-cleavage came to 0.782.
With C15U U31C, the self-cleavage worked out at 0.923.
For G13U A34U, the self-cleavage is 0.199.
In the case of C25A U37A, the self-cleavage was 0.106.
Consider A4C G29U, for which the self-cleavage was 0.145.
Take C20A G45C: the self-cleavage worked out at 0.161.
As for C25A C46A, the figure is 0.07; as for C9G C21U, 0.0793; as for C14U G28A, 1.09.
Turning to G7U C20A, the self-cleavage is 0.0332.
For G17U U37G, the self-cleavage was 0.12.
For C19A G28A, the self-cleavage is 0.184.
With C14G G38C, the self-cleavage came to 0.159.
For A22U U31C, the self-cleavage is 0.935.
As for C26G G28A, the figure is 0.101.
As for G13C C27A, the figure is 0.0712; as for C14G A23U, 0.0448; as for G39A G41C, 0.126.
Turning to A4U C5G, the self-cleavage worked out at 0.0771.
Consider A4U A33C, for which the self-cleavage worked out at 0.0899.
For the variant C5U A32G, the self-cleavage amounted to 0.795.
Turning to G24U U37C, the self-cleavage is 0.0947.
As for G13C G17C, the figure is 0.0805.
In the case of C26U U31G, the self-cleavage worked out at 0.503.
As to U6A C46G, the self-cleavage came to 0.988.
C9G U18A: the self-cleavage was 0.108.
As to C3A C26A, the self-cleavage came out at 0.139.
On to G16U A22G, for which the self-cleavage was 0.21.
As to A32U A40C, the self-cleavage is 0.204.
In the case of G7U C25U, the self-cleavage came out at 0.302.
With C3U A22G, the self-cleavage turned out to be 0.0518.
With C25A G29C, the self-cleavage turned out to be 0.0958.
Consider C14A U18C, for which the self-cleavage came out at 0.371.
With G38U G39U, the self-cleavage came to 0.0892.
The result for G16U G47U reads 0.653; that for C19U C26G, 0.0861; that for C27U A33C, 0.764.
As for A10U G36A, the figure is 0.804; as for C15A G45C, 0.352.
For the variant A22U G41A, the self-cleavage was found to be 0.102.
C8A U31G: the self-cleavage is 0.57.
The result for A11G G47C reads 0.528; that for C25A G36C, 0.0709.
As for G28C G42A, the figure is 0.185.
With G28C G42U, the self-cleavage came out at 0.169.
For the variant G41U G43U, the self-cleavage stood at 0.147.
The result for A1G C46G reads 0.428.
Turning to C14U G42C, the self-cleavage was 0.59.
As for C14U G42U, the self-cleavage worked out at 0.486.
As for G17C C26A, the self-cleavage turned out to be 0.286.
The result for A2U A34C reads 0.15; that for G44C C46G, 0.254; that for A35U G39A, 0.316.
In the case of C3G C15A, the self-cleavage worked out at 0.161.
For the variant G17A A22C, the self-cleavage was determined as 0.669.
Take C26U C46U: the self-cleavage is 0.519.
As for A30U A35C, the figure is 1.07.
As for G39U G48A, the figure is 0.156.
As to G39U G48C, the self-cleavage amounted to 0.265.
Turning to G42U G43C, the self-cleavage amounted to 0.114.
For the variant U6G C9U, the self-cleavage came to 0.163.
On to A34G A40U, for which the self-cleavage amounted to 0.122.
Consider G13C C20G, for which the self-cleavage is 0.0962.
The result for G13C C20A reads 0.0483; that for A2U U31C, 0.652.
For the variant A35G G39A, the self-cleavage was determined as 0.374.
With A4G G45C, the self-cleavage came to 0.294.
C21G A30C: the self-cleavage came out at 0.0405.
As to C8A G38U, the self-cleavage was 0.169.
C21G A23G: the self-cleavage was found to be 0.11.
For A4C A34G, the self-cleavage was found to be 0.0947.
On to C25G U37C, for which the self-cleavage was determined as 0.102.
On to A1U C8U, for which the self-cleavage is 0.087.
In the case of C15G U37G, the self-cleavage turned out to be 0.143.
On to A32U G47C, for which the self-cleavage came out at 0.583.
